# Source: paper PMC9482650, “Quantitative fragmentomics allow affinity mapping of interactomes” (Nature Communications, 2022)
# B1: HCN2, Q9UL51 (peptide)
# chain: SARSRLSSNL
# B2: AQP6, Q13520 (peptide)
# chain: GSGAVEMESV
# B3: TRAF2, Q12933 (peptide)
# chain: IKAIVDLTGL
# B4: BANF1, O75531 (peptide)
# chain: CLREWCDAFL
# Legend:
# Experiment in all cases: holdup assay
# Set-up in all cases: key: below the threshold = too weak to quantify, mostly under pKd 3.1 to 4
# Details in all cases: plain residues with an end cap or a label only (N-terminal biotin on a linker: ado-ado)
# [1] = target: NHERF4_2, Q86UT5
# [2] = target: T1, DFNB31_2, Q9P202
# T1 sequence (Q9P202 274-371, limits assumed, looked up): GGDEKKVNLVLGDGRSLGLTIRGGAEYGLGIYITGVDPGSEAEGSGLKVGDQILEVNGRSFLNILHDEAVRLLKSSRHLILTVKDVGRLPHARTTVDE
# [3] = target: MAGI1_2, Q96QZ7
# [4] = target: T2, SIPA1L2, Q9P2F8
# T2 sequence (Q9P2F8 945-1036, limits assumed, looked up): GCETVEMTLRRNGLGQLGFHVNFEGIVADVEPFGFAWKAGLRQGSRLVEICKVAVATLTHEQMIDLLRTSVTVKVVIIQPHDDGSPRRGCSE
# [5] = target: SCRIB_1, Q14160
# [6] = target: ARHGEF12, Q9NZN5-2
# [7] = target: T3, PARD3B_1, Q8TEW8
# T3 sequence (Q8TEW8 196-299, limits assumed, looked up): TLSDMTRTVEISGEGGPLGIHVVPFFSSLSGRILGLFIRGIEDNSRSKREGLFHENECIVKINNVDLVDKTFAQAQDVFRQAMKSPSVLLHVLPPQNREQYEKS
# [8] = target: TJP1_2, Q07157
# [9] = target: T4, NHERF3_3, Q5T2W1
# T4 sequence (Q5T2W1 238-333, limits assumed, looked up): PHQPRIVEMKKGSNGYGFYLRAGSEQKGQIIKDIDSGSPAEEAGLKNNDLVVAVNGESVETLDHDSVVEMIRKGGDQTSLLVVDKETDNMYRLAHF
# [10] = target: GORASP1, Q9BQQ3
# [11] = target: T5, TJP3_3, O95049
# T5 sequence (O95049 375-456, limits assumed, looked up): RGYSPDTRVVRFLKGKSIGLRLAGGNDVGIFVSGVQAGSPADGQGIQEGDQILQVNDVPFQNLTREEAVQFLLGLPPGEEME
# [12] = target: T6, SNTA1, Q13424
# T6 sequence (Q13424 82-180, limits assumed, looked up): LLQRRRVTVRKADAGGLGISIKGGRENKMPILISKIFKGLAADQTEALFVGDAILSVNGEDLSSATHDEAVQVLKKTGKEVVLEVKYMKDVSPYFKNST
# [13] = target: SCRIB_3, Q14160
# [14] = target: T7, APBA3_1, O96018
# T7 sequence (O96018 389-490, limits assumed, looked up): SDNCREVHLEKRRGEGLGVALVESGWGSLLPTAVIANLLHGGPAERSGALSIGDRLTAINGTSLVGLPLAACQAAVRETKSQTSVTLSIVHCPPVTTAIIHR
# [15] = target: T8, HTRA3, P83110
# T8 sequence (P83110 354-453, limits assumed, looked up): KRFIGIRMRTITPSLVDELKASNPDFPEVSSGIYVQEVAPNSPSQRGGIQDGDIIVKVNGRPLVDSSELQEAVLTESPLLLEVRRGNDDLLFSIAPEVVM
# [16] = target: T9, SNTG1, Q9NSN8
# T9 sequence (Q9NSN8 52-150, limits assumed, looked up): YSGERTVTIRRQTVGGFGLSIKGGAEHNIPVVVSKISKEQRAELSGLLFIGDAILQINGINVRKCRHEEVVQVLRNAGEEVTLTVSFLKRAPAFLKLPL
# [17] = target: CASK, O14936
# [18] = target: T10, APBA2_1, Q99767
# T10 sequence (Q99767 563-664, limits assumed, looked up): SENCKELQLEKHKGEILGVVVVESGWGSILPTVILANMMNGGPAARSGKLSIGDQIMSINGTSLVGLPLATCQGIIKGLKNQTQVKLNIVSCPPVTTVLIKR
# [19] = target: GRIP2_7, Q9C0E4
# [20] = target: TJP2_1, Q9UDY2
# [21] = target: LIMK2, P53671
# [22] = target: GRIP2_3, Q9C0E4
# [23] = target: DLG2_2, Q15700
# [24] = target: T11, DVL3, Q92997
# T11 sequence (Q92997 244-331, limits assumed, looked up): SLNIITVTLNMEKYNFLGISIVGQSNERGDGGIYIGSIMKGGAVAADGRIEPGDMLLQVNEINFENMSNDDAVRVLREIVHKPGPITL
# [25] = target: PARD3_3, Q8TEW0
# [26] = target: T12, PDZD7_3, Q9H5P4
# T12 sequence (Q9H5P4 857-944, limits assumed, looked up): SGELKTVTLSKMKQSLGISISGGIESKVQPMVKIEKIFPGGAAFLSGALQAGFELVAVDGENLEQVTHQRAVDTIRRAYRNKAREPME
# Sequence of GRIP2_7, Q9C0E4 (Q9C0E4 934-1023): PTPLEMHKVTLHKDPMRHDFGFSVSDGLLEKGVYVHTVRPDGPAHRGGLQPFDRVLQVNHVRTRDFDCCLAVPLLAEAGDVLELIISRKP
# Sequence of GORASP1, Q9BQQ3 (Q9BQQ3 1-208): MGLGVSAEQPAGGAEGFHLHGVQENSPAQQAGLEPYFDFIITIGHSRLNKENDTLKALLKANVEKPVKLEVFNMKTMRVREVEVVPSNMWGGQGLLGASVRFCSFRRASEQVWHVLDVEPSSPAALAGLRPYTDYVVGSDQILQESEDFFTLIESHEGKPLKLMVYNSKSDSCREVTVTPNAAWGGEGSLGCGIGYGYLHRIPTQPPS
# Sequence of PARD3_3, Q8TEW0 (Q8TEW0 582-685): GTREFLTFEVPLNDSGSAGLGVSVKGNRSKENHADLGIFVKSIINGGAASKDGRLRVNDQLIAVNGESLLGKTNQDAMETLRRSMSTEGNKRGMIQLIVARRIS
# Sequence of TJP1_2, Q07157 (Q07157 181-274): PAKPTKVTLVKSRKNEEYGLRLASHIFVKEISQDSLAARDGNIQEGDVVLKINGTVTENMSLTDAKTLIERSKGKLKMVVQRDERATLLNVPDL
# Sequence of ARHGEF12, Q9NZN5-2 (Q9NZN5 other isoform, or with tags, fused parts or gaps): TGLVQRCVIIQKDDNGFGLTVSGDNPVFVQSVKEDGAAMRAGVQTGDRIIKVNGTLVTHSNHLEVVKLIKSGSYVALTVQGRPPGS
# Sequence of SCRIB_1, Q14160 (Q14160 718-814): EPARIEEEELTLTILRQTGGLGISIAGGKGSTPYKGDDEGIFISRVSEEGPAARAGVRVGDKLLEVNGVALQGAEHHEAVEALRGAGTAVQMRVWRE
# Sequence of DLG2_2, Q15700 (Q15700 189-283): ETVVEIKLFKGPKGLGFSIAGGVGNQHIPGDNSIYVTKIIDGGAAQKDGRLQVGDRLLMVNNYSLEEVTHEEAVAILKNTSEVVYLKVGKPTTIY
# Sequence of SCRIB_3, Q14160 (Q14160 999-1103): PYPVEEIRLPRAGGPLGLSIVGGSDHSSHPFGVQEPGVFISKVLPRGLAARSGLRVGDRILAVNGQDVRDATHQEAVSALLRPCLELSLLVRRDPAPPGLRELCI
# Sequence of NHERF4_2, Q86UT5 (Q86UT5 220-308): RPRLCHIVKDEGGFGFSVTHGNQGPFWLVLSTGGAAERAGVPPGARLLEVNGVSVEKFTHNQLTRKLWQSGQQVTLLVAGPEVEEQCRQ
# Sequence of GRIP2_3, Q9C0E4 (Q9C0E4 238-339): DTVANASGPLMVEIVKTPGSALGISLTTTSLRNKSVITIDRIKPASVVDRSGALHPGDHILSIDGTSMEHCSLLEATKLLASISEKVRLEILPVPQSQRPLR
# Sequence of LIMK2, P53671 (P53671 143-248): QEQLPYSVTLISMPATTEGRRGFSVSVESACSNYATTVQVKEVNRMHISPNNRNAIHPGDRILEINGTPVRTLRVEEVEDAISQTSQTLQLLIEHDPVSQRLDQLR
# Sequence of CASK, O14936 (O14936 487-570): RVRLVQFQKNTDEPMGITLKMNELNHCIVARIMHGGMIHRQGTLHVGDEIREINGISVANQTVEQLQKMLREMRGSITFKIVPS
# Sequence of MAGI1_2, Q96QZ7 (Q96QZ7 456-580): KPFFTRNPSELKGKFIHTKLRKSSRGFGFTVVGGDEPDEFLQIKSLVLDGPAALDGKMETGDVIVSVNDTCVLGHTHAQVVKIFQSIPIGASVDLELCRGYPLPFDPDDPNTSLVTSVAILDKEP
# Sequence of TJP2_1, Q9UDY2 (Q9UDY2 24-128): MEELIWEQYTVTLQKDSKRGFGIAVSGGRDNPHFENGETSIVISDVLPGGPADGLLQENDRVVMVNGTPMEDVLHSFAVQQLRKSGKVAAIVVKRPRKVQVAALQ
Binder,pKd [1],pKd [2],pKd [3],pKd [4],pKd [5],pKd [6],pKd [7],pKd [8],pKd [9],pKd [10],pKd [11],pKd [12],pKd [13],pKd [14],pKd [15],pKd [16],pKd [17],pKd [18],pKd [19],pKd [20],also measured
B1,below the threshold,below the threshold,4.17,below the threshold,4.36,4.66,3.71,below the threshold,below the threshold,below the threshold,below the threshold,below the threshold,4.32,below the threshold,below the threshold,below the threshold,below the threshold,below the threshold,below the threshold,below the threshold,pKd [21]: below the threshold; pKd [22]: below the threshold; pKd [23]: below the threshold; pKd [24]: below the threshold; pKd [25]: below the threshold; pKd [26]: 4.09
B2,below the threshold,below the threshold,below the threshold,below the threshold,below the threshold,below the threshold,below the threshold,below the threshold,below the threshold,below the threshold,below the threshold,below the threshold,below the threshold,below the threshold,below the threshold,below the threshold,below the threshold,below the threshold,below the threshold,below the threshold,pKd [21]: below the threshold; pKd [22]: below the threshold; pKd [23]: below the threshold; pKd [24]: below the threshold; pKd [25]: below the threshold; pKd [26]: below the threshold
B3,below the threshold,below the threshold,below the threshold,below the threshold,below the threshold,3.5,below the threshold,below the threshold,below the threshold,below the threshold,below the threshold,below the threshold,below the threshold,below the threshold,below the threshold,below the threshold,below the threshold,below the threshold,below the threshold,below the threshold,pKd [21]: below the threshold; pKd [22]: below the threshold; pKd [23]: below the threshold; pKd [24]: below the threshold; pKd [25]: below the threshold; pKd [26]: below the threshold
B4,below the threshold,below the threshold,below the threshold,below the threshold,below the threshold,below the threshold,5.18,below the threshold,below the threshold,3.82,3.86,below the threshold,4.03,below the threshold,4.17,below the threshold,3.52,below the threshold,below the threshold,below the threshold,pKd [21]: 3.61; pKd [22]: below the threshold; pKd [23]: below the threshold; pKd [24]: 3.65; pKd [25]: 4.43; pKd [26]: below the threshold
